Measured values: US7109015B2, “Removal of N-terminal methionine from proteins by engineered methionine aminopeptidase” (Academia Sinica, priority 2004, dated 2006)
Changes are numbered by the printed parent chain. Numbers in names are those of the source. Read-outs that look alike come from different tables or passages of the source. Marks after values point to notes of the source that are not given here.

What was measured:
[1] = target: Met-tagged onconase with different penultimate residue (Escherichia coli, UniProt P0AE18); details: adapted from Hirel et al., 1989, cited from earlier work
synthetic oligopeptides = assay type: biochemical; details: for Specific activity (unit/mg): 4 mM oligopeptide, pH 7.5, 37° C.
Procedure: The oligopeptide substrates used in this experiment were synthesized on the 432A Synergy peptide synthesizer (Applied Biosystems, Foster, Calif., USA). The enzymatic activity of purified MetAP was assayed as described by Ben-Bassat et al., 1987. Briefly, the diluted MetAP enzyme in 10 μl was added to 90 μl of the substrate solution containing 4 mM oligopeptide, 0.1 M potassium phosphate buffer, pH 7.5 and 0.2 mM CoCl2, incubated at 37° C. for 10 min and stopped in boiling water for 2 min. After addition of 0.9 ml of color development mixture containing 0.2 mg of L-amino acid oxidase, 0.03 mg of horseradish peroxidase and 0.2 mg of o-dianisidine in 0.1 M Tris-HCl, pH 7.4, the mixtures were incubated for 10 min at 37° C., and the optical density at 440 nm was recorded. One unit of activity is defined as 1 μmol of amino acids produced per min under the assay conditions and the pure Met was used as standard. The N-terminal residues of the MetAP-treated oligopeptide were further verified by Edman degradation.

RC-RNase4 = assay: In vivo Met removal, co-expression in E. coli, RC-RNase 4 substrate; assay type: cell-based, Rana catesbeiana; details: substrate MAAWA (SEQ ID NO:15)-RC4; solubility −
Procedure: The MetAP was expressed alone or co-expressed with a target protein, i.e., onconase and RC-RNaseL1, in E. coli BL21 (DE3) in the presence of 0.5 mM IPTG at 37° C.
Proteins in the cell pellet or in the soluble fraction were separated by 13.3% SDS-PAGE and contact-transferred to ProBlott™ membrane (Applied Bioystems) in transfer buffer (10 mM Tris-HCl, pH 7.5, 50 mM NaCl, 2 mM EDTA, 0.5 mM 2-mercaptoethanol) overnight. The five N-terminal residues of the transferred protein were determined by Edman degradation. The percentage of Met removal was calculated by dividing the amount of proteins initiated with the penultimate residue with the amount of total proteins (including proteins initiated with the penultimate residue and unprocessed protein initiated with Met) after the first degradation cycle. In theory, this percentage should remain the same after each degradation cycle. Therefore, in order to avoid experimental variation, the same calculation was made from five consecutive degradation cycles, e.g., M, Q, N, W and L for onconase. The efficiency of Met removal is reported as the mean values of at least three cycles.

Met-tagged onconase = assay: In vivo catalytic activity of MetAPs co-expressed with Met-tagged onconase in E. coli BL21(DE3); N-terminus by Edman degradation; assay type: cell-based; details: in vivo in E. coli
Description: Residues Tyr168, Met206 and Gln233 in the putative substrate-binding site of E. coli MetAP were mutated by site-directed mutagenesis based on the crystal structure and amino acid sequence alignment of MetAPs (Ben-Bassat et al., 1987; Lowther et al., 1999; Walker et al., 1999). For the expression of secretory ribonucleases, the ribonuclease gene was cloned and expressed as described previously (Huang et al., 1998).
Most of the co-expressed target protein, e.g., onconase or RC-RNase L1, existed in insoluble cell lysate. They were denatured, renatured and purified as described previously (Liao et al., 2003). The purified ribonucleases were stored in 20 mM sodium phosphate, pH 7.0, for pyroglutamate formation at the N-terminus. Alternatively, the ribonuclease secreted into culture medium through pe1B system was concentrated and purified to electrophoretical homogeneity at a yield of 1˜5 mg per 1 liter of culture (Huang et al., 1998).

[2] = E. coli MetAP mutations; Chiu et al. 1999; cited from earlier work
[3] = substrate MAA-Onc, listed as wild type E. coli MetAP

B1: MetAP-YMQ: wild type E. coli Met aminopeptidase (SEQ ID NO:1) (protein, listed as Escherichia coli)
chain: MAISIKTPEDIEKMRVAGRLAAEVLEMIEPYVKPGVSTGELDRICNDYIVNEQHAVSACLGYHGYPKSVCISINEVVCHGIPDDAKLLKDGDIVNIDVTVIKDGFHGDTSKMFIVGKPTIMGERLCRITQESLYLALRMVKPGINLREIGAAIQKFVEAEGFSVVREYCGHGIGRGFHEEPQVLHYDSRETNVVLKPGMTFTIEPMVNAGKKEIRTMKDGWTVKTKDRSLSAQYEHTIVVTDNGCEILTLRKDDTIPAIISHDE
[1]; substrate MAD-Onc
  Catalytic activity (%): efficiency of Met removal by wild type MetAP: 100%
[1]; substrate MDD-Onc
  Catalytic activity (%): efficiency of Met removal by wild type MetAP: ~20%
[1]; substrate MED-Onc
  Catalytic activity (%): efficiency of Met removal by wild type MetAP: 0%
[1]; substrate MFD-Onc
  Catalytic activity (%): efficiency of Met removal by wild type MetAP: 0%
[1]; substrate MGD-Onc
  Catalytic activity (%): efficiency of Met removal by wild type MetAP: 100^c %
[1]; substrate MHD-Onc
  Catalytic activity (%): efficiency of Met removal by wild type MetAP: 0%
[1]; substrate MID-Onc
  Catalytic activity (%): efficiency of Met removal by wild type MetAP: ~20%
[1]; substrate MKD-Onc
  Catalytic activity (%): efficiency of Met removal by wild type MetAP: 0%
[1]; substrate MLD-Onc
  Catalytic activity (%): efficiency of Met removal by wild type MetAP: ~20%
[1]; substrate MMD-Onc
  Catalytic activity (%): efficiency of Met removal by wild type MetAP: 0%
[1]; substrate MND-Onc
  Catalytic activity (%): efficiency of Met removal by wild type MetAP: ~20%
[1]; substrate MPD-Onc
  Catalytic activity (%): efficiency of Met removal by wild type MetAP: 80–90%
[1]; substrate MQD-Onc
  Catalytic activity (%): efficiency of Met removal by wild type MetAP: 0%
[1]; substrate MRD-Onc
  Catalytic activity (%): efficiency of Met removal by wild type MetAP: 0%
[1]; substrate MSD-Onc
  Catalytic activity (%): efficiency of Met removal by wild type MetAP: 80–90%
[1]; substrate MTD-Onc
  Catalytic activity (%): efficiency of Met removal by wild type MetAP: 80–90%
[1]; substrate MVD-Onc
  Catalytic activity (%): efficiency of Met removal by wild type MetAP: 80–90%
[1]; substrate MWD-Onc
  Catalytic activity (%): efficiency of Met removal by wild type MetAP: 0%
[1]; substrate MWD-Onc, listed as wild type MetAP
  Catalytic activity (%): efficiency of Met removal by wild type MetAP: inactive
[1]; substrate MYD-Onc
  Catalytic activity (%): efficiency of Met removal by wild type MetAP: 0%
[1]; substrate MYD-Onc, listed as wild type MetAP
  Catalytic activity (%): efficiency of Met removal by wild type MetAP: inactive
Synthetic oligopeptides; oligopeptides ranging from tetra- to dodecapeptides with Ala at the penultimate site
  In vitro catalytic activity: high catalytic activity
Synthetic oligopeptides; substrate MADY (SEQ ID NO:7)
  Specific activity (unit/mg): 138 ± 8 unit/mg
Synthetic oligopeptides; substrate MADYLT (SEQ ID NO:8)
  Specific activity (unit/mg): 138 ± 6 unit/mg
Synthetic oligopeptides; substrate MQDYLT (SEQ ID NO:9)
  Specific activity (unit/mg): 0.43 ± 0.01 unit/mg
Synthetic oligopeptides; substrate […] (SEQ ID NO:5)
  Specific activity (unit/mg): 85 ± 13 unit/mg
Synthetic oligopeptides; substrate […] (SEQ ID NO:6)
  Specific activity (unit/mg): 0.62 ± 0.08 unit/mg
RC-RNase4
  Catalytic activity (%): percent of penultimate residue removed: removed
  Catalytic activity (%): removal of N-terminal Met: removed
Met-tagged onconase; substrate MAA-Onc
  Catalytic activity (%): percent of penultimate residue removed: 77%
  Catalytic activity (%): removal of N-terminal Met: 85%
Met-tagged onconase; [3]
  Catalytic activity (%): percent of penultimate residue removed: removed
  Catalytic activity (%): removal of N-terminal Met: removed
Met-tagged onconase; substrate MAG-Onc
  Catalytic activity (%): percent of penultimate residue removed: 63%
  Catalytic activity (%): removal of N-terminal Met: 80%
Met-tagged onconase; substrate MQD-Onc, listed as wild type MetAP
  Catalytic activity (%): removal of N-terminal Met: failed altogether
Met-tagged onconase; substrate MQD-Onc, listed as wild type enzyme
  Catalytic activity (%): removal of N-terminal Met: no activity

B2: MetAP-Q233G: E. coli MetAP with Gln233 replaced by Gly (protein, UniProt P0AE18 2-264, looked up, variant Q233G)
Methionine aminopeptidase: AISIKTPEDIEKMRVAGRLAAEVLEMIEPYVKPGVSTGELDRICNDYIVNEQHAVSACLGYHGYPKSVCISINEVVCHGIPDDAKLLKDGDIVNIDVTVIKDGFHGDTSKMFIVGKPTIMGERLCRITQESLYLALRMVKPGINLREIGAAIQKFVEAEGFSVVREYCGHGIGRGFHEEPQVLHYDSRETNVVLKPGMTFTIEPMVNAGKKEIRTMKDGWTVKTKDRSLSAGYEHTIVVTDNGCEILTLRKDDTIPAIISHDE
Met-tagged onconase; substrate MQD-Onc
  Catalytic activity (%): removal of N-terminal Met: 74%

B3: MetAP-M206V: E. coli MetAP with Met206 replaced by Val (protein, UniProt P0AE18 2-264, looked up, variant M206V)
Methionine aminopeptidase: B2 Methionine aminopeptidase with M205V, G232Q
Met-tagged onconase; substrate MQD-Onc
  Catalytic activity (%): removal of N-terminal Met: 61%

B4: C59S: E. coli MetAP mutation in the putative substrate-binding pocket (protein, UniProt P0AE18 2-264, looked up, variant C59S)
Methionine aminopeptidase: B2 Methionine aminopeptidase with C58S, G232Q
[2]
  Catalytic activity, % activity of the wild type: do not reduce catalytic activity

B5: MetAP-M206T: E. coli MetAP with Met206 replaced by Thr (protein, UniProt P0AE18 2-264, looked up, variant M206T)
Methionine aminopeptidase: B2 Methionine aminopeptidase with M205T, G232Q
Met-tagged onconase; substrate MQD-Onc
  Catalytic activity (%): removal of N-terminal Met: 86%

B6: MetAP-M206G: E. coli MetAP with Met206 replaced by Gly (protein, UniProt P0AE18 2-264, looked up, variant M206G)
Methionine aminopeptidase: B2 Methionine aminopeptidase with M205G, G232Q
Met-tagged onconase; substrate MQD-Onc
  Catalytic activity (%): removal of N-terminal Met: 85%

B7: MetAP-*TT (protein)
chain: B2 Methionine aminopeptidase with M205T, G232T
Synthetic oligopeptides; substrate MADY (SEQ ID NO:7)
  Specific activity (unit/mg): 0.38 ± 0.03 unit/mg
Synthetic oligopeptides; substrate MADYLT (SEQ ID NO:8)
  Specific activity (unit/mg): 0.12 ± 0.01 unit/mg
Synthetic oligopeptides; substrate MQDYLT (SEQ ID NO:9)
  Specific activity (unit/mg): 0.13 ± 0.01 unit/mg
Synthetic oligopeptides; substrate […] (SEQ ID NO:5)
  Specific activity (unit/mg): 1.00 ± 0.08 unit/mg
Synthetic oligopeptides; substrate […] (SEQ ID NO:6)
  Specific activity (unit/mg): 0.25 ± 0.01 unit/mg
Met-tagged onconase; substrate MQD-Onc
  Catalytic activity (%): removal of N-terminal Met: 93%

B8: MetAP-*GG (protein)
chain: B2 Methionine aminopeptidase with M205G
Synthetic oligopeptides; substrate MADY (SEQ ID NO:7)
  Specific activity (unit/mg): 0.51 ± 0.01 unit/mg
Synthetic oligopeptides; substrate MADYLT (SEQ ID NO:8)
  Specific activity (unit/mg): 0.29 ± 0.01 unit/mg
Synthetic oligopeptides; substrate MQDYLT (SEQ ID NO:9)
  Specific activity (unit/mg): 0.29 ± 0.02 unit/mg
Synthetic oligopeptides; substrate […] (SEQ ID NO:5)
  Specific activity (unit/mg): 3.28 ± 0.04 unit/mg
Synthetic oligopeptides; substrate […] (SEQ ID NO:6)
  Specific activity (unit/mg): 0.50 ± 0.02 unit/mg
Met-tagged onconase; substrate MID-Onc
  Catalytic activity (%): removal of N-terminal Met: 5%
Met-tagged onconase; substrate MLD-Onc
  Catalytic activity (%): removal of N-terminal Met: 18%
Met-tagged onconase; substrate MQD-Onc
  Catalytic activity (%): removal of N-terminal Met: 96%

B9: MetAP-Q233T: E. coli MetAP with Gln233 replaced by Thr (protein, UniProt P0AE18 2-264, looked up, variant Q233T)
Methionine aminopeptidase: B2 Methionine aminopeptidase with G232T
Met-tagged onconase; substrate MQD-Onc
  Catalytic activity (%): removal of N-terminal Met: 88%
